# Measurements published in publication PMC8595303, “Dramatic activation of an antibody by a single amino acid change in framework” (Scientific Reports, 2021).
# T1: mature form of human TGFβ2 (made from LAP-TGFβ2 in CHO, for crystallization) (Homo sapiens)
# T1 construct: Transforming Growth Factor-beta 2, human, mature form separated from LAP-TGFβ2; also called TGFb2; TGFβ2 dimer
# T1 chain: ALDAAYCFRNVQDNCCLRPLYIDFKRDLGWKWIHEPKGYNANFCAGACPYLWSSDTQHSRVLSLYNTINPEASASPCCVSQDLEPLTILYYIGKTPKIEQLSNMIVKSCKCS
# B1: humanized 4A11 variant 5 (antibody, V domains shown)
# VH: EQQLVESGGGLVQPGGSLRLSCAVSGFSLSSYTVNWVRQAPGKGLEWIGYISYGGSAYYASWANGRFTISKDSAKNSVYLQMNSLRAEDTAVYFCARHMQVGGAPTGSMAAFDPWGPGTLVTVSS
# VL: EAVLTQSPGTLSLSPGERATLSCQSSQSVYNNNYLSWFQQKPGQPPRLLIYGASTLTSGVPDRFSGSGSGTDFTLTISRLEPEDFAVYYCAGGYSGSSDKYAFGGGTKVEIK
# notes: as the VH of m7 (h4A11.v2): rbt4A11 CDRs and rabbit Vernier residues grafted on human germline IGHV3-48*01; as the VL of m12 (h4A11.v7): rbt4A11 CDRs and rabbit Vernier residues grafted on human germline IGKV3-20*01; human IgG1; also called h4A11.v5; v5; source: Expi293F, transient, purified (Protein A, SEC)
# B2: humanized 4A11 variant 2 (antibody, V domains shown)
# VH: B1 VH
# VL: DAQLTQSPSSLSASVGDRVTITCQSSQSVYNNNYLSWFQQKPGKPPKLLIYGASTLTSGVPSRFSGSGSGTDFTLTISSLQPEDFATYYCAGGYSGSSDKYAFGGGTKVEIK
# notes: rbt4A11 CDRs (Kabat and Chothia) and rabbit Vernier residues (VH positions 2, 24, 37, 48, 49, 67, 71, 78, 91, 105) grafted on human germline IGHV3-48*01; has R19, Y79, Q81 (Kabat numbering); rbt4A11 CDRs and rabbit Vernier residues (VL positions 2, 4, 36, 43, 58) grafted on human germline IGKV1D-39*01; human IgG1; also called h4A11.v2; v2; source: Expi293F, transient, purified (Protein A, SEC)
# B3: humanized 4A11 variant 6 (antibody, V domains shown)
# VH: B1 VH
# VL: DAVLTQTPLSSPVTLGQPASISCQSSQSVYNNNYLSWFQQRPGQPPRLLIYGASTLTSGVPDRFSGSGAGTDFTLKISRVEAEDVGVYYCAGGYSGSSDKYAFGGGTKVEIK
# notes: as the VH of m7 (h4A11.v2): rbt4A11 CDRs and rabbit Vernier residues grafted on human germline IGHV3-48*01; rbt4A11 CDRs and rabbit Vernier residues (VL positions 2, 4, 36, 43, 58) grafted on human germline IGKV2-24*01; human IgG1; also called h4A11.v6; v6; source: Expi293F, transient, purified (Protein A, SEC)
# B4: humanized 4A11 variant 3 (antibody, V domains shown)
# VH: EQQLQESGPGLVKPSETLSLTCTVTGFSLSSYTVNWVRQPAGKGLEWIGYISYGGSAYYASWANGRFTISKDSSKNQVSLKLSSVTAADTAVYFCARHMQVGGAPTGSMAAFDPWGPGTLVTVSS
# VL: DAVLTQSPDSLAVSLGERATINCQSSQSVYNNNYLSWFQQKPGQPPKLLIYGASTLTSGVPDRFSGSGSGTDFTLTISSLQAEDVAVYYCAGGYSGSSDKYAFGGGTKVEIK
# notes: as the VH of m12 (h4A11.v7): rbt4A11 CDRs and rabbit Vernier residues grafted on human germline IGHV4-59*06; as the VL of m6 (h4A11.v1): rbt4A11 CDRs and rabbit Vernier residues grafted on human germline IGKV4-1*01; human IgG1; also called h4A11.v3; v3; source: Expi293F, transient, purified (Protein A, SEC)
# B5: humanized 4A11 variant 7 (antibody, V domains shown)
# VH: B4 VH
# VL: B1 VL
# notes: rbt4A11 CDRs (Kabat and Chothia) and rabbit Vernier residues (VH positions 2, 24, 37, 48, 49, 67, 71, 78, 91, 105) grafted on human germline IGHV4-59*06; has S19, S79, K81 (Kabat numbering); rbt4A11 CDRs and rabbit Vernier residues (VL positions 2, 4, 36, 43, 58) grafted on human germline IGKV3-20*01; human IgG1; also called h4A11.v7; v7; source: Expi293F, transient, purified (Protein A, SEC)
# B6: humanized 4A11 variant 1 (antibody, V domains shown)
# VH: B1 VH
# VL: B4 VL
# notes: as the VH of m7 (h4A11.v2): rbt4A11 CDRs and rabbit Vernier residues grafted on human germline IGHV3-48*01; rbt4A11 CDRs and rabbit Vernier residues (VL positions 2, 4, 36, 43, 58) grafted on human germline IGKV4-1*01; human IgG1; also called h4A11.v1; v1; source: Expi293F, transient, purified (Protein A, SEC)
# B7: humanized 4A11 variant 8 (antibody, V domains shown)
# VH: B4 VH
# VL: B3 VL
# notes: as the VH of m12 (h4A11.v7): rbt4A11 CDRs and rabbit Vernier residues grafted on human germline IGHV4-59*06; as the VL of m11 (h4A11.v6): rbt4A11 CDRs and rabbit Vernier residues grafted on human germline IGKV2-24*01; human IgG1; also called h4A11.v8; v8; source: Expi293F, transient, purified (Protein A, SEC)
# B8: humanized 4A11 variant 4 (antibody, V domains shown)
# VH: B4 VH
# VL: B2 VL
# notes: as the VH of m12 (h4A11.v7): rbt4A11 CDRs and rabbit Vernier residues grafted on human germline IGHV4-59*06; as the VL of m7 (h4A11.v2): rbt4A11 CDRs and rabbit Vernier residues grafted on human germline IGKV1D-39*01; human IgG1; also called h4A11.v4; v4; source: Expi293F, transient, purified (Protein A, SEC)
# B9: rabbit monoclonal antibody 4A11 (antibody, V domains shown)
# VH: QSLEESGGRLVTPGTPLTLTCTVSGFSLSSYTVNWVRQAPGKGLEWIGYISYGGSAYYASWANGRFTISKTSATVDLKITSPTTEDTATYFCARHMQVGGAPTGSMAAFDPWGPGTLVTVSS
# VL: AAVLTQTPSPVSAAVGGTVSISCQSSQSVYNNNYLSWFQQKPGQPPKLLIYGASTLTSGVPSRFKGSGSGTQFTLTISDVQCDDAATYYCAGGYSGSSDKYAFGGGTEVVVK
# notes: VH of rbt4A11; VL of rbt4A11; Parental rabbit antibody; also called rbt4A11
# B10: Fab fragment of h4A11.v2 (Fab, V domains shown)
# VH: B1 VH
# VL: B2 VL
# notes: Fab heavy chain of h4A11.v2; its VH as the VH of m7; Fab light chain of h4A11.v2; its VL as the VL of m7; also called h4A11.v2-Fab; h4A11.v2 Fab; source: E. coli, purified (Protein G, SP-sepharose)
# Target: T2, human mature TGFβ1 (Homo sapiens, UniProt P01137)
# T2 construct: Transforming Growth Factor-beta 1, human, mature form (cut from the precursor); also called TGFb1; source: bought: PeproTech
# Experiment: SPR; Biacore T200; antibody captured on a Protein A sensor chip (about 90 RU); mature TGFβ isoform injected, five-fold dilutions 0.008 nM to 5 nM; HBS-EP pH 7.4, 150 mM NaCl; 37 °C; 100 μl/min; 3 min association, 60 min dissociation; one-to-one Langmuir model, global fit
# Conditions: both partners purified
# T2 sequence (P01137 279-390): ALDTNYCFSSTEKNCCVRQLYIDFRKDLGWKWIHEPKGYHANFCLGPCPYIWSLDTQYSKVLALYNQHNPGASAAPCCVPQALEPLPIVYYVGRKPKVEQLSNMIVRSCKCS
Kd [nM],binding result,Binder
> 5,no binding (tested: 5 nM),B1
> 5,no binding (tested: 5 nM),B2
> 5,no binding (tested: 5 nM),B3
> 5,no binding (tested: 5 nM),B4
> 5,no binding (tested: 5 nM),B5
> 5,no binding (tested: 5 nM),B6
> 5,no binding (tested: 5 nM),B7
> 5,no binding (tested: 5 nM),B8
> 5,no binding (tested: 5 nM),B9

# Target: T3, human mature TGFβ3 (Homo sapiens, UniProt P10600)
# T3 construct: Transforming Growth Factor-beta 3, human, mature form (cut from the precursor); also called TGFb3; source: bought: PeproTech
# Experiment: as above
# Conditions: both partners purified
# T3 sequence (P10600 301-412): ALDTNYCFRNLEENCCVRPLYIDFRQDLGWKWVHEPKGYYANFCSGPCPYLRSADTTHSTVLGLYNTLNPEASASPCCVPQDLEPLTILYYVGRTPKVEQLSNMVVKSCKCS
row,Kd [nM],Binder
1,0.0139,B1
2,0.0133,B2
3,0.0125,B3
4,0.0121,B4
5,0.0097,B5
6,0.0144,B6
7,0.0141,B7
8,0.0101,B8
9,0.0012,B9

# Target: T4, human mature TGFβ2 (PeproTech) (Homo sapiens, UniProt P61812)
# T4 construct: Transforming Growth Factor-beta 2, human, mature form (cut from the precursor); also called TGFb2; source: bought: PeproTech
# Experiment: as above
# Conditions: both partners purified
row,Kd [nM],Binder
1,0.0121,B1
2,0.0014,B2
3,0.0084,B3
4,0.0096,B4
5,0.0063,B5
6,0.0046,B6
7,0.0082,B7
8,0.01,B8
9,0.0016,B9

# Target: T2, human mature TGFβ1
# Experiment: cell-based or functional assay
# Conditions: not given
row,"TGFβ inhibition by HEK-Blue cells (IC50: nM), TGFb1 [nM]",Binder
1,> 667,B1
2,> 667,B2
3,> 667,B3
4,> 667,B4
5,> 667,B5
6,> 667,B6
7,> 667,B7
8,> 667,B8
9,> 667,B9

# Target: T3, human mature TGFβ3
# Experiment: cell-based or functional assay
# Conditions: not given
"TGFβ inhibition by HEK-Blue cells (IC50: nM), TGFb3; Blocking: Incomplete [nM]","TGFβ inhibition by HEK-Blue cells (IC50: nM), TGFb3; Blocking: Complete [nM]",Binder
> 667,,B1
> 667,,B2
> 667,,B3
,0.2,B4
,0.2,B5
> 667,,B6
,0.7,B7
,0.1,B8
,0.1,B9

# Target: T4, human mature TGFβ2 (PeproTech)
# Experiment: cell-based or functional assay
# Conditions: not given
"TGFβ inhibition by HEK-Blue cells (IC50: nM), TGFb2; Blocking: Incomplete [nM]","TGFβ inhibition by HEK-Blue cells (IC50: nM), TGFb2; Blocking: Complete [nM]",Binder
> 667,,B1
> 667,,B2
> 667,,B3
,3.9,B4
,0.9,B5
> 667,,B6
,4.8,B7
,1.9,B8
,0.9,B9

# Target: T1, mature form of human TGFβ2 (made from …)
# Experiment: crystal structure; TGFβ2 and h4A11.v2 Fab mixed at 1:1 molar ratio, complex purified on Superdex-200 (25 mM Tris-HCl pH 7.5, 200 mM NaCl); crystals by vapor diffusion at 19 °C, 15% PEG 4000, 0.1 M Na Cacodylate pH 6.0; 2.9 Å
# Conditions: both partners purified
row,binding result,Binder
1,binds,B10
